Results reported in patent US10072299B2, “Antibodies against epidermal growth factor receptor (EGFR) and uses thereof” (Merrimack Pharmaceuticals, Inc., priority 2011, dated 2018).
Values belong to the molecule of their own block, whether it stands above or below them.

Tests used:
[1] = conversion of irinotecan by nonspecific carboxylesterases; cited from earlier work
phospho-ERK = phospho-ERK ELISA in A431 cells; format: cell-based, human
Method: Cells are serum starved in 1% FBS medium with antibiotics and 2 mM L-glutamine for about 20 hours at 37° C. and 5% carbon dioxide. Cells are then preincubated with varying concentrations of anti-EGFR antibodies for 2 hrs, and then stimulated with human EGF ligand (50 ng/ml) (PeproTech, cat # AF-100-15) for 10 minutes at 37° C. and 5%/carbon dioxide. […] Lysates are either analyzed immediately by ELISA for ERK (a downstream effector of EGFR) and EGFR phosphorylation, or frozen at −80° C. until use.
The phospho-ERK ELISA is performed similarly to the phospho-EGFR ELISA with the following changes: Human pERK ELISA Duoset kit is purchased from R&D Systems (cat# DYC1018-5) and used as recommended by the manufacturer.
A431 cells were treated with a dilution series of antibody and phospho-ERK inhibition measured by ELISA.
Experiments were performed with rhEGF (PeproTech) dosed at a concentration of 50 ng/mL or 500 ng/mL.

mouse EGFR = mouse EGFR (Mus musculus, UniProt Q01279); test: Cross reactivity with mouse EGFR; format: binding
phospho-EGFR = phospho-EGFR ELISA in A431 cells; format: cell-based, human; conditions: EGF stimulated

Molecule: CCc1c2c(nc3ccc(O)cc13)-c1cc3c(c(=O)n1C2)COC(=O)[C@]3(O)CC [SN-38, 7-Ethyl-10-hydroxy-camptothecin]
activity of metabolite relative to irinotecan [1]: 100-1000 fold

cross reaction with (binding to) mouse EGFR (mouse EGFR): cross reacts with (binds to) mouse EGFR
B1: P1X: affinity matured anti-EGFR monoclonal antibody (Bin1) of parental ca; VH SEQ ID NO: 19, VL SEQ ID NO: 20 (antibody, V domains shown)
VH: MGFGLSWLFLVAILKGVQCQVQLVQSGAEVKKPGSSVKVSCKASGGTFSSYAISWVRQAPGQGLEWMGSIIPIFGTVNYAQKFQGRVTITADESTSTAYMELSSLRSEDTAVYYCARDPSVNLYWYFDLWGRGTLVTVSS
VL: MGTPAQLLFLLLLWLPDTTGDIQMTQSPSTLSASVGDRVTITCRASQSISSWWAWYQQKPGKAPKLLIYDASSLESGVPSRFSGSGSGTEFTLTISSLQPDDFATYYCQQYHAHPTTFGGGTKVEIK
phospho-ERK inhibition with 80 nM EGF (in words) (phospho-ERK; 80 nM of EGF ligand): partial
phospho-ERK inhibition (in words) (phospho-ERK; EGF 50 ng/ml, dilution series): dose-dependent inhibition of phospho-ERK activity

B2: P3X: affinity matured anti-EGFR monoclonal antibody (Bin3) of parental ch; VH SEQ ID NO: 23, VL SEQ ID NO: 24 (antibody, V domains shown)
VH: MGFGLSWLFLVAILKGVQCQVQLVQSGAEVKKPGASVKVSCKASGYAFTSYGINWVRQAPGQGLEWMGWISAYNGNTYYAQKLRGRVTMTTDTSTSTAYMELRSLRSDDTAVYYCARDLGGYGSGSVPFDPWGQGTLVTVSS
VL: MGTPAQLLFLLLLWLPDTTGEIVMTQSPATLSVSPGERATLSCRASQSVSSNLAWYQQKPGQAPRLLIYGASTRATGIPARFSGSGSGTEFTLTISSLQSEDFAVYYCQDYRTWPRRVFGGGTKVEIK
phospho-EGFR inhibition, single antibody (in words) (phospho-EGFR): partial phospho-EGFR inhibition
